The values below come from PMC4757414, “Evidences of Changes in Surface Electrostatic Charge Distribution during Stabilization of HPV16 Virus-Like Particles” (PLoS ONE, 2016).

The series deals with the molecule itself. The series can be described thus: static light scattering; Debye plot (Zimm equation) of purified HPV16 VLPs in dilute solution, initial (0 h) and final (48 h) states; T = 298 K; 0.5 M NaCl, 50 mM sodium citrate, 1 mM CaCl2, pH 6.

B1: HPV16 L1 protein (assembled into HPV16 virus-like particles) (natural protein)
chain: MSLWLPSEATVYLPPVPVSKVVSTDEYVARTNIYYHAGTSRLLAVGHPYFPIKKPNNNKILVPKVSGLQYRVFRIHLPDPNKFGFPDTSFYNPDTQRLVWACVGVEVGRGQPLGVGISGHPLLNKLDDTENASAYAANAGVDNRECISMDYKQTQLCLIGCKPPIGEHWGKGSPCTNVAVNPGDCPPLELINTVIQDGDMVDTGFGAMDFTTLQANKSEVPLDICTSICKYPDYIKMVSEPYGDSLFFYLRREQMFVRHLFNRAGAVGENVPDDLYIKGSGSTANLASSNYFPTPSGSMVTSDAQIFNKPYWLQRAQGHNNGICWGNQLFVTVVDTTRSTNMSLCAAISTSETTYKNTNFKEYLRHGEEYDLQFIFQLCKITLTADVMTYIHSMNSTILEDWNFGLQPPPGGTLEDTYRFVTSQAIACQKHTPPAPKEDPLKKYTFWEVNLKEKFSADLDQFPLGRKFLLQAGLKAKPKFTLGKRKATPTTSSTSTTAKRKKRKL
notes: major capsid protein L1 (~55 kDa) of human papillomavirus type 16; also called HPV L1; HPV16 VLPs; source: insect cells infected with HPV L1 expressing baculovirus, purified (chromatography and filtration, at least 95% purity); provided by Sino Biological, Inc
Regarding B1, the binding result is “binds”.
